The target in this assay is mTurquoise-Tub1p (S. cerevisiae) (UniProt P09733). As to the kind of experiment: FRET or BRET; sensitized emission FRET in living S. cerevisiae cells by confocal microscopy; mTurquoise donor, YFP acceptor; FRET index corrected for donor and acceptor bleed through and for the level of the donor (relative FRET index). In general terms: Bioluminescence resonance energy transfer reports proximity on the nanometre scale.
Sequence of UniProt P09733 (P09733 whole entry): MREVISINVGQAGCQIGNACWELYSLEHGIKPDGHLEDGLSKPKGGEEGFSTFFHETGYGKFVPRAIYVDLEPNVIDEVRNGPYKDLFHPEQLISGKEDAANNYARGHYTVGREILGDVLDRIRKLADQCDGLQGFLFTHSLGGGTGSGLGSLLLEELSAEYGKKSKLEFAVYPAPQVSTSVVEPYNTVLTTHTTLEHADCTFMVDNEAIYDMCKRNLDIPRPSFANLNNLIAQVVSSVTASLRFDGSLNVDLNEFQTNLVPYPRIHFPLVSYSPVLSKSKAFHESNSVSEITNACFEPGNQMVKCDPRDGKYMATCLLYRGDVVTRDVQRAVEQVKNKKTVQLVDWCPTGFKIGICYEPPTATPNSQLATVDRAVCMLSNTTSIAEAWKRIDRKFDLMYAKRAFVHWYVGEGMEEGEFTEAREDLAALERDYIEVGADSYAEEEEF

Regarding “YFP-VirE2 (from UniProt P0A3W8 1-533) (natural protein)”, the relative FRET index is 11.9.

Values taken from publication PMC3937733.
